Experimental data taken from the supplement of paper PMC10899765.

system: MCF10A; assay: 5+ nucleoli phenotype percent effect (relative to siNT 0% and siKIF11 100%); higher = more cells with five or more nucleoli; settings: 20 nM; 72 h
Method: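 After 72 h, cells were fixed and stained with Hoechst and anti-fibrillarin, and nucleoli per nucleus were counted with CellProfiler. Values are plate-adjusted percent effect for the one-nucleolus and 5+ nucleoli phenotypes, normalised to siNT (0%) and to the positive controls siNOL11 or siKIF11 (100%), as the mean of biological triplicates. Percent viability is the nuclei count relative to siNT.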

In order of rising “5+ nucleoli phenotype percent effect” value:
1. CUCUUGAGGGAAGCACUUUCUGU [hsa-miR-526b-5p]  -54.5%
2. CAGGUCGUCUUGCAGGGCUUCU [hsa-miR-431-3p]  -53.4%
3. AGGAGCAGUGCCGGCCAAGGCGCC [hsa-miR-6081]  -52.9%
4. AAAAGGCGGGAGAAGCCCCA [hsa-miR-4484]  -51.6%
5. CUUAUGCAAGAUUCCCUUCUAC [hsa-miR-491-3p]  -51.5%
6. ACUCGGCGUGGCGUCGGUCGUG [hsa-miR-1307-3p]  -50.5%
7. AGAAGGCACUAUGAGAUUUAGA [hsa-miR-605-3p]  -49.9%
8. AGGCGGAGACUUGGGCAAUUG [hsa-miR-25-5p]  -48.5%
9. AGUGUGGCUUUCUUAGAGC [hsa-miR-644a]  -48.4%
10. CGGCGGGGACGGCGAUUGGUC [hsa-miR-1908-5p]  -47.2%
11. UGGCAAGGAAAGAAGAGGAUCA [hsa-miR-6809-5p]  -45.7%
12. AGAGCAGAAGGAUGAGAU [hsa-miR-4468]  -43.6%
13. CAAUCAGCAAGUAUACUGCCCU [hsa-miR-34a-3p]  -43.5%
14. UGCCUGUCUACACUUGCUGUGC [hsa-miR-214-5p]  -42.1%
15. AGUUUUGCAGGUUUGCAUCCAGC [hsa-miR-19b-1-5p]  -41.5%
16. CUGCCAAUUCCAUAGGUCACAG [hsa-miR-192-3p]  -40.8%
17. CAAAGGUAUUUGUGGUUUUUG [hsa-miR-548m]  -40.8%
18. UUUGCAGUAACAGGUGUGAGCA [hsa-miR-6516-5p]  -40.6%
19. CUGGCGGCUGUGUCUUCACAG [hsa-miR-6770-3p]  -40.2%
20. AAAGGCAUAAAACCAAGACA [hsa-miR-3910]  -39.2%
21. GGCCAGCCACCAGGAGGGCUG [hsa-miR-3194-5p]  -36.9%
22. UGGUUCUAGACUUGCCAACUA [hsa-miR-182-3p]  -35.8%
23. AAAGGAGGAAAUAGGCAGGCCA [hsa-miR-3173-3p]  -35.7%
24. AAGGAGCUUACAAUCUAGCUGGG [hsa-miR-708-5p]  -34.6%
25. UGAAGGUCUACUGUGUGCCAGG [hsa-miR-493-3p]  -34.3%
26. UGUCCUCUAGGGCCUGCAGUCU [hsa-miR-3909]  -34.2%
27. AGAAAGGGUGGCAAUACCUCUU [hsa-miR-5681a]  -33.1%
28. AAGGAGCUCACAGUCUAUUGAG [hsa-miR-28-5p]  -30.7%
29. GAGGGCGGGUGGAGGAGGA [hsa-miR-3141]  -29.5%
30. AGAUCAGAAGGUGAUUGUGGCU [hsa-miR-383-5p]  -26.7%
31. AGCUUUUGGGAAUUCAGGUAGU [hsa-miR-3140-3p]  -25.9%
32. UAUGGCACUGGUAGAAUUCACU [hsa-miR-183-5p]  -24%
33. UAGGAGCUCAACAGAUGCCUGUU [hsa-miR-3139]  -23.5%
34. UCUCUGGGCCUGUGUCUUAGGC [hsa-miR-330-5p]  -22.3%
35. ACUGGGGAGCAGAAGGAGAACC [hsa-miR-4667-5p]  -15.5%
36. UAAGGCACGCGGUGAAUGCC [hsa-miR-124-3p]  -14.4%
37. UGGCAGUGUCUUAGCUGGUUGU [hsa-miR-34a-5p]  -14.4%
38. CAUCUGGCAUCCGUCACACAGA [hsa-miR-3126-3p]  -5.56%
39. CCGUCGCCGCCACCCGAGCCG [hsa-miR-1181]  96.7%
40. CUCUCCCUCUUUACCCACUAG [hsa-miR-6867-3p]  133%
41. ACCUUGGCUCUAGACUGCUUACU [hsa-miR-212-5p]  164%
42. GUUCUCCCAACGUAAGCCCAGC [hsa-miR-629-3p]  238%

system: hTERT RPE-1; assay: nucleolar rRNA biogenesis percent inhibition (5-EU; siNT 0%, siPOLR1A 100%); higher = stronger inhibition of nucleolar rRNA biogenesis; settings: 20 nM; 72 h
Method: (§1)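 Primary screen hits (microRNA mimics) were re-picked and rescreened for nucleolar number in MCF10A cells (hitpick validation; percent effect relative to the siNT and siNOL11/siKIF11 controls). A secondary screen measured nucleolar rRNA biogenesis inhibition: after 72 h of transfection at 20 nM, cells were labelled 1 h with 1 mM 5-EU and nucleolar 5-EU signal was quantified, normalised to siNT (0%) and siPOLR1A (100%). Means are over n=5 (MCF10A) or n=2 (RPE-1, HeLa) biological replicates.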

In order of rising “nucleolar rRNA biogenesis percent inhibition” value:
1. CUUAUGCAAGAUUCCCUUCUAC [hsa-miR-491-3p]  -86.4%
2. AGUUUUGCAGGUUUGCAUCCAGC [hsa-miR-19b-1-5p]  -48.4%
3. AGAAGGCACUAUGAGAUUUAGA [hsa-miR-605-3p]  -22.8%
4. AAGGAGCUUACAAUCUAGCUGGG [hsa-miR-708-5p]  9.05%
5. ACUCGGCGUGGCGUCGGUCGUG [hsa-miR-1307-3p]  13.7%
6. UAAGGCACGCGGUGAAUGCC [hsa-miR-124-3p]  28.2%
7. AGCUUUUGGGAAUUCAGGUAGU [hsa-miR-3140-3p]  33%
8. AGGCGGAGACUUGGGCAAUUG [hsa-miR-25-5p]  45.2%
9. CAUCUGGCAUCCGUCACACAGA [hsa-miR-3126-3p]  50.7%
10. GGCCAGCCACCAGGAGGGCUG [hsa-miR-3194-5p]  50.9%
11. UGGCAGUGUCUUAGCUGGUUGU [hsa-miR-34a-5p]  52.6%
12. AAGGAGCUCACAGUCUAUUGAG [hsa-miR-28-5p]  63.6%
13. UGUCCUCUAGGGCCUGCAGUCU [hsa-miR-3909]  66.8%
14. GUUCUCCCAACGUAAGCCCAGC [hsa-miR-629-3p]  70.8%
15. CUCUUGAGGGAAGCACUUUCUGU [hsa-miR-526b-5p]  75.9%
16. UGCCUGUCUACACUUGCUGUGC [hsa-miR-214-5p]  87.1%
17. UGAAGGUCUACUGUGUGCCAGG [hsa-miR-493-3p]  108%
18. UCUCUGGGCCUGUGUCUUAGGC [hsa-miR-330-5p]  109%
19. CAAUCAGCAAGUAUACUGCCCU [hsa-miR-34a-3p]  113%
20. CGGCGGGGACGGCGAUUGGUC [hsa-miR-1908-5p]  113%
21. ACCUUGGCUCUAGACUGCUUACU [hsa-miR-212-5p]  114%
22. CAGGUCGUCUUGCAGGGCUUCU [hsa-miR-431-3p]  118%
23. AGAUCAGAAGGUGAUUGUGGCU [hsa-miR-383-5p]  123%
24. CUGCCAAUUCCAUAGGUCACAG [hsa-miR-192-3p]  136%
25. AAAGGAGGAAAUAGGCAGGCCA [hsa-miR-3173-3p]  159%
26. UGGUUCUAGACUUGCCAACUA [hsa-miR-182-3p]  173%
27. UAUGGCACUGGUAGAAUUCACU [hsa-miR-183-5p]  204%

system: MCF10A; assay: as above; settings: 20 nM; 72 h
Method: as §1

In order of rising “nucleolar rRNA biogenesis percent inhibition” value:
1. AAGGAGCUCACAGUCUAUUGAG [hsa-miR-28-5p]  0.18%
2. UAAGGCACGCGGUGAAUGCC [hsa-miR-124-3p]  61.9%
3. CUUAUGCAAGAUUCCCUUCUAC [hsa-miR-491-3p]  63.6%
4. AGAAGGCACUAUGAGAUUUAGA [hsa-miR-605-3p]  65%
5. CUGCCAAUUCCAUAGGUCACAG [hsa-miR-192-3p]  67.1%
6. GUUCUCCCAACGUAAGCCCAGC [hsa-miR-629-3p]  82.1%
7. CUCUUGAGGGAAGCACUUUCUGU [hsa-miR-526b-5p]  130%
